# Assay results reported in paper PMC6509359 (Molecular Cell, 2019).
# Where “and” joins values, the source holds several entries; their conditions need not be identical. Equal entries are not always repeated.
# Assays:
# [1] = biological target: T1, ubiquitin-propargylamine, Ub(1-75)-PA (UniProt P0CG48 1-75, C-terminal propargylamine (PA) after residue 75); test: covalent reaction with the ubiquitin-propargylamine probe; 1.3 eq of His6-3C-Ub(1-75)-PA, 1–4 h at 4°C; complex purified over HisTrap by the probe's tag, 3C protease, gel filtration; conditions: both partners purified
# T1 construct: ubiquitin residues 1-75, C-terminus carries propargylamine (reactive probe); reacts covalently with the DUB; the His6-3C tag was on the probe during the reaction and the HisTrap step and was cut off with 3C protease before gel filtration; also called Ub-PA; His6-3C-Ub(1-75)-PA; source: assembled as described previously (Gersch et al., 2017), > 95% purity by intact protein mass spectrometry; not …
# [2] = biological target: the molecule itself; test: SEC-MALS; 100 μL of 1-2 mg/mL protein on Superdex 200 10/300, 0.5 mL/min, PBS + 2 mM DTT
# [3] = biological target: the molecule itself; test: SEC-MALS; five-fold dilution series (1 mg/mL, 0.2 mg/mL, 0.04 mg/mL sample concentration)
# [4] = biological target: the molecule itself; test: native gel or EMSA; native PAGE of lysates of HEK293 cells transfected with FLAG- or HA-tagged proteins, immunoblotting; recombinant USP25 tetramer and dimer fractions as size standard
# [5] = biological target: the molecule itself; test: not stated; oligomeric states of purified orthologs and of full-length proteins, Figures S7A, S7B and S3J
binder,measurement,setting,value
"Human USP25 (157-720) (domain or fragment, UniProt Q9UHP3 157-720, looked up, also called USP25 catalytic domain; source: E. coli Rosetta2(DE3)pLacI, purified (HisTrap, 3C protease, Resource Q, size exclusion)) NPYDRKRQDKAPVGLKNVGNTCWFSAVIQSLFNLLEFRRLVLNYKPPSNAQDLPRNQKEHRNLPFMRELRYLFALLVGTKRKYVDPSRAVEILKDAFKSNDSQQQDVSEFTHKLLDWLEDAFQMKAEEETDEEKPKNPMVELFYGRFLAVGVLEGKKFENTEMFGQYPLQVNGFKDLHECLEAAMIEGEIESLHSENSGKSGQEHWFTELPPVLTFELSRFEFNQALGRPEKIHNKLEFPQVLYLDRYMHRNREITRIKREEIKRLKDYLTVLQQRLERYLSYGSGPKRFPLVDVLQYALEFASSKPVCTSPVDDIDASSPPSGSIPSQTLPSTTEQQGALSSELPSTSPSSVAAISSRSVIHKPFTQSRIPPDLPMHPAPRHITEEELSVLESCLHRWRTEIENDTRDLQESISRIHRTIELMYSDKSMIQVPYRLHAVLVHEGQANAGHYWAYIFDHRESRWMKYNDIAVTKSSWEELVRDSFGGYRNASAYCLMYINDKAQFLIQEEFNKETGQPLVGIETLPPDLRDFVEEDNQRFEKELEEWDAQLAQKALQEKLLASQ",binding result,[1],binds
same,stoichiometry N,[2],4
"Human USP25 (157-1055) (domain or fragment, UniProt Q9UHP3 157-1055, looked up, source: E. coli Rosetta2(DE3)pLacI, purified (HisTrap, 3C protease, Resource Q, size exclusion)) NPYDRKRQDKAPVGLKNVGNTCWFSAVIQSLFNLLEFRRLVLNYKPPSNAQDLPRNQKEHRNLPFMRELRYLFALLVGTKRKYVDPSRAVEILKDAFKSNDSQQQDVSEFTHKLLDWLEDAFQMKAEEETDEEKPKNPMVELFYGRFLAVGVLEGKKFENTEMFGQYPLQVNGFKDLHECLEAAMIEGEIESLHSENSGKSGQEHWFTELPPVLTFELSRFEFNQALGRPEKIHNKLEFPQVLYLDRYMHRNREITRIKREEIKRLKDYLTVLQQRLERYLSYGSGPKRFPLVDVLQYALEFASSKPVCTSPVDDIDASSPPSGSIPSQTLPSTTEQQGALSSELPSTSPSSVAAISSRSVIHKPFTQSRIPPDLPMHPAPRHITEEELSVLESCLHRWRTEIENDTRDLQESISRIHRTIELMYSDKSMIQVPYRLHAVLVHEGQANAGHYWAYIFDHRESRWMKYNDIAVTKSSWEELVRDSFGGYRNASAYCLMYINDKAQFLIQEEFNKETGQPLVGIETLPPDLRDFVEEDNQRFEKELEEWDAQLAQKALQEKLLASQKLRESETSVTTAQAAGDPEYLEQPSRSDFSKHLKEETIQIITKASHEHEDKSPETVLQSAIKLEYARLVKLAQEDTPPETDYRLHHVVVYFIQNQAPKKIIEKTLLEQFGDRNLSFDERCHNIMKVAQAKLEMIKPEEVNLEEYEEWHQDYRKFRETTMYLIIGLENFQRESYIDSLLFLICAYQNNKELLSKGLYRGHDEELISHYRRECLLKLNEQAAELFESGEDREVNNGLIIMNEFIVPFLPLLLVDEMEEKDILAVEDMRNRWCSYLGQEMEPHLQEKLTDFLPKLLDCSMEIKSFHEPPKLPSYSTHELCERFARIMLSLSRTPADGR",stoichiometry N,[3],4
"Human USP25 (1-714) (domain or fragment, UniProt Q9UHP3 1-714, looked up, USP25, human, residues 1-714; tetrameric and dimeric species side by side; source: E. coli Rosetta2(DE3)pLacI, purified (HisTrap, 3C protease, Resource Q, size exclusion)) MTVEQNVLQQSAAQKHQQTFLNQLREITGINDTQILQQALKDSNGNLELAVAFLTAKNAKTPQQEETTYYQTALPGNDRYISVGSQADTNVIDLTGDDKDDLQRAIALSLAESNRAFRETGITDEEQAISRVLEASIAENKACLKRTPTEVWRDSRNPYDRKRQDKAPVGLKNVGNTCWFSAVIQSLFNLLEFRRLVLNYKPPSNAQDLPRNQKEHRNLPFMRELRYLFALLVGTKRKYVDPSRAVEILKDAFKSNDSQQQDVSEFTHKLLDWLEDAFQMKAEEETDEEKPKNPMVELFYGRFLAVGVLEGKKFENTEMFGQYPLQVNGFKDLHECLEAAMIEGEIESLHSENSGKSGQEHWFTELPPVLTFELSRFEFNQALGRPEKIHNKLEFPQVLYLDRYMHRNREITRIKREEIKRLKDYLTVLQQRLERYLSYGSGPKRFPLVDVLQYALEFASSKPVCTSPVDDIDASSPPSGSIPSQTLPSTTEQQGALSSELPSTSPSSVAAISSRSVIHKPFTQSRIPPDLPMHPAPRHITEEELSVLESCLHRWRTEIENDTRDLQESISRIHRTIELMYSDKSMIQVPYRLHAVLVHEGQANAGHYWAYIFDHRESRWMKYNDIAVTKSSWEELVRDSFGGYRNASAYCLMYINDKAQFLIQEEFNKETGQPLVGIETLPPDLRDFVEEDNQRFEKELEEWDAQLAQKALQE",stoichiometry N,[3],4 and 2
"HA-USP28 (2-1077) (enzyme, human, UniProt Q96RU2 2-1077, looked up, USP28, human, residues 2-1077; also called hemagglutinin (HA)-tagged USP28, wild type; source: HEK293, transfected (pOPINE), in lysate; not shown: HA, N-terminal, kept) TAELQQDDAAGAADGHGSSCQMLLNQLREITGIQDPSFLHEALKASNGDITQAVSLLTDERVKEPSQDTVATEPSEVEGSAANKEVLAKVIDLTHDNKDDLQAAIALSLLESPKIQADGRDLNRMHEATSAETKRSKRKRCEVWGENPNPNDWRRVDGWPVGLKNVGNTCWFSAVIQSLFQLPEFRRLVLSYSLPQNVLENCRSHTEKRNIMFMQELQYLFALMMGSNRKFVDPSAALDLLKGAFRSSEEQQQDVSEFTHKLLDWLEDAFQLAVNVNSPRNKSENPMVQLFYGTFLTEGVREGKPFCNNETFGQYPLQVNGYRNLDECLEGAMVEGDVELLPSDHSVKYGQERWFTKLPPVLTFELSRFEFNQSLGQPEKIHNKLEFPQIIYMDRYMYRSKELIRNKRECIRKLKEEIKILQQKLERYVKYGSGPARFPLPDMLKYVIEFASTKPASESCPPESDTHMTLPLSSVHCSVSDQTSKESTSTESSSQDVESTFSSPEDSLPKSKPLTSSRSSMEMPSQPAPRTVTDEEINFVKTCLQRWRSEIEQDIQDLKTCIASTTQTIEQMYCDPLLRQVPYRLHAVLVHEGQANAGHYWAYIYNQPRQSWLKYNDISVTESSWEEVERDSYGGLRNVSAYCLMYINDKLPYFNAEAAPTESDQMSEVEALSVELKHYIQEDNWRFEQEVEEWEEEQSCKIPQMESSTNSSSQDYSTSQEPSVASSHGVRCLSSEHAVIVKEQTAQAIANTARAYEKSGVEAALSEVMLSPAMQGVILAIAKARQTFDRDGSEAGLIKAFHEEYSRLYQLAKETPTSHSDPRLQHVLVYFFQNEAPKRVVERTLLEQFADKNLSYDERSISIMKVAQAKLKEIGPDDMNMEEYKKWHEDYSLFRKVSVYLLTGLELYQKGKYQEALSYLVYAYQSNAALLMKGPRRGVKESVIALYRRKCLLELNAKAASLFETNDDHSVTEGINVMNELIIPCIHLIINNDISKDDLDAIEVMRNHWCSYLGQDIAENLQLCLGEFLPRLLDPSAEIIVLKEPPTIRPNSPYDLCSRFAAVMESIQGVSTVTVK",stoichiometry N,[4],2
"M. musculus USP25 (157-715) (domain or fragment, mouse (Mus musculus), UniProt P57080 157-715, looked up, also called USP25 catalytic domain from mouse; source: E. coli Rosetta2(DE3)pLacI, purified (HisTrap, 3C protease, Resource Q, size exclusion)) NPYDRKRQEKAPVGLKNVGNTCWFSAVIQSLFNLLEFRRLVLNYKPPSNAQDLPRNQKEHRNLPFMRELRYLFALLVGTKRKYVDPSRAVEILKDAFKSNDSQQQDVSEFTHKLLDWLEDAFQMKAEEETDEEKPKNPMVELFYGRFLAMGVLEGKKFENTEMFGQYPLQVNGFKDLHECLEAAMIEGEIESLHSDNSGKSGQEHWFTELPPVLTFELSRFEFNQALGRPEKIHNKLEFPQVLYLDRYMHRNREITRIKREEIKRLKDYLTVLQQRLERYLSYGSGPKRFPLVDVLQYALEFASSKPVCTSPVDDIDASSSASGPLPSQSLPSTTEQQGPCASDLPGSSSPASGAALPLRSVIHKPFTQSRIPPDLPMHPAPRHITEEELCVLESCLHRWRTEIENDTRDLQESISRIHRTIELMYSDKSMIQVPYRLHAVLVHEGQANAGHYWAYIFDHRESRWMKYNDIAVTKSSWEELVRDSFGGYRNASAYCLMYIDDKAQFLIQEEFNKETGQALVGMETLPPDLRDFVEEDNQRFEKELEEWDTQLAQRSLQE",binding result,[1],binds
same,stoichiometry N,[5],4
"M. musculus USP25 (1-1055) (enzyme, mouse (Mus musculus), UniProt P57080 1-1055, looked up, dimer-tetramer equilibrium; also called full-length mouse USP25; source: E. coli Rosetta2(DE3)pLacI, purified (HisTrap, 3C protease, Resource Q, size exclusion)) MTVEQNVLQQSAAQKHQQTFLNQLREITGINDAQILQQALKDSNGNLELAVAFLTAKNAKTPPQEETGYYQTALPGNDRYISVGSQADANVIDLTGDDKDDLQRAIALSLAESNRAFRETGITDEEQAISRVLEASIAENKACLKRTPIEVWRDSRNPYDRKRQEKAPVGLKNVGNTCWFSAVIQSLFNLLEFRRLVLNYKPPSNAQDLPRNQKEHRNLPFMRELRYLFALLVGTKRKYVDPSRAVEILKDAFKSNDSQQQDVSEFTHKLLDWLEDAFQMKAEEETDEEKPKNPMVELFYGRFLAMGVLEGKKFENTEMFGQYPLQVNGFKDLHECLEAAMIEGEIESLHSDNSGKSGQEHWFTELPPVLTFELSRFEFNQALGRPEKIHNKLEFPQVLYLDRYMHRNREITRIKREEIKRLKDYLTVLQQRLERYLSYGSGPKRFPLVDVLQYALEFASSKPVCTSPVDDIDASSSASGPLPSQSLPSTTEQQGPCASDLPGSSSPASGAALPLRSVIHKPFTQSRIPPDLPMHPAPRHITEEELCVLESCLHRWRTEIENDTRDLQESISRIHRTIELMYSDKSMIQVPYRLHAVLVHEGQANAGHYWAYIFDHRESRWMKYNDIAVTKSSWEELVRDSFGGYRNASAYCLMYIDDKAQFLIQEEFNKETGQALVGMETLPPDLRDFVEEDNQRFEKELEEWDTQLAQRSLQEKLLAAPKLREAEASATTAQAGGADYLEQPSRSDLSKHWKEETLRVIAKASHDLEDKGPETVLQSAIKLEYSRLVKLAQEDTPPETDYRLHHVLVYFIQNQAPKKIIEKTLLEQFGDRNLSFDERCHNIMKVAQAKLEMIKPEEVNLEEYEEWHADYKKFRETTMYLITGLENFQRESYIDSLLFLLCAYQNNKELLSKGPYRGHDGELISHYRRECLLKLNEQAAELFESGEDGDVNNGLIIMNEFIVPFLPLLLVDDMEEKDILAVEDMRNRWCSYLGQEMEANLQEKLTDFLPKLLDCSTEIKGFHEPPKLPSYSAHELCERFARIMLSLSRTPADGR",stoichiometry N,[5],2 and 4
"G. gallus USP28 (143-706) (domain or fragment, chicken (Gallus gallus), UniProt Q5ZID5 143-706, looked up, USP28, chicken, residues 143-706; also called USP28 catalytic domain from chicken; source: E. coli Rosetta2(DE3)pLacI, purified (HisTrap, 3C protease, Resource Q, size exclusion)) SKQSDWKRVGDWPVGMKNIGNTCWFSAVIQSLFQLPQFRRLVLSYSFPPNVLESCRTRTGKRNIAFMQELQCLFALMLGTRRKFVDPSAALELLRDAFKSTEEQQQDVSEFTHKLLDWLEDAFQLAVNVRSPGDKSENPMVQLFYGTFLTEGVHEGNTFSKIETFGQYPLQVNGYRNLNECLEGAMVEGEMDEETATQSVKYVQERWFTKLPPVLTFELSRFEFNQSLGQPEKIHTKLEFPQTIFMDRYLYCSKELIQTKREEMKKLKEKMLVLQQKLERYMKYGSGPARFPLPDMLQYVLEFITTKPAGAVSSACVSSTEDSQMMDRQSQGESLILGTPSQPDSMLDGKDGKPEDEAVLLANSSPQQQLNAPLQPSEPPAEMSDCPAPHVVSEEEMNLVTTCLQRWRNEIEQDVRDLKESIARVSLSIDEMYSDPHLQQVPYHLHAVLVHEGQANAGHYWAFIYDQPRKSWLKYNDISVTESSWEELERDSFGGLRNASAYCLMYISDKVSHVVAGEGDGSEVGQFQKEVEALPPELRRYIQEDNWRLEQEAEEWEEEQSCKI",stoichiometry N,[5],2
